This assay deals with Siglec-9 expressed by primary monocytes, monocyte-derived macrophages and monocytic cell lines (THP-1, U937) (human) (UniProt Q9Y336). Description: cell-based or functional assay.
Siglec-9 expressed by primary monocytes, monocyte-derived macrophages and monocytic cell lines (THP-1, U937) (human), sequence (Q9Y336 19-463): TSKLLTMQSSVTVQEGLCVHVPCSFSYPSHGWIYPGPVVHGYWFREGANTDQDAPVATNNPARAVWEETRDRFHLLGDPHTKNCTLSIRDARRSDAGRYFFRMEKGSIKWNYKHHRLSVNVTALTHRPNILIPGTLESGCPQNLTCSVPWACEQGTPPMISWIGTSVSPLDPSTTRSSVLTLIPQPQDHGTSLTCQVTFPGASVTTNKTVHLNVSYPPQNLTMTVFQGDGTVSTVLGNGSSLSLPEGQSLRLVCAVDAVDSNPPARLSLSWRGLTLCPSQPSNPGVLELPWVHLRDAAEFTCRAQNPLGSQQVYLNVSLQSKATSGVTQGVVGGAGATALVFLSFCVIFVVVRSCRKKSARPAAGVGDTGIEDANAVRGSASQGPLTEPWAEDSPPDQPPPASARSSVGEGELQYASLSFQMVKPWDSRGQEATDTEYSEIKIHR

For the substance “MUC1-ST (recombinant secreted MUC1 consisting of 16 tandem repeats carrying sialylated Core-1 glycans, Ig part removed by trypsin) (from UniProt P15941 129-448) (ligand)”, the IDO mRNA expression in macrophages (qRT-PCR) lay within 10 to 25 fold.

(Values after US20190211099A1, “METHODS AND COMPOSITIONS FOR TREATING CANCER WITH SIGLEC-9 ACTIVITY MODULATORS” (KING'S COLLEGE LONDON, priority 2016, published 2019).)
